In patent EP4725967A1 (Nanjing Probio Biotech Co., Ltd., dated 2026):
Positions count from the first letter of the chain named. Each block holds one binder with its values, some of them ahead of it.

Tests used:
[1] = target: T1, human CCR8 (human, UniProt P51685 1-355); experiment: flow cytometry, hybridoma supernatant on HEK293/hu-CCR8 cells
T1 construct: whole, on cells; also called hu-CCR8; CC chemokine receptor 8

[2] = target: T1, human CCR8; experiment: flow cytometry on HEK293/hu-CCR8 cells (FIG. 5A)
[3] = target: T1, human CCR8; experiment: flow cytometry on HEK293/hu-CCR8 cells, chimeric antibody (FIG. 1B)
[4] = target: T1, human CCR8; experiment: flow cytometry on HEK293/hu-CCR8 cells, chimeric antibody (FIG. 1A)

T1 sequence (P51685 whole entry): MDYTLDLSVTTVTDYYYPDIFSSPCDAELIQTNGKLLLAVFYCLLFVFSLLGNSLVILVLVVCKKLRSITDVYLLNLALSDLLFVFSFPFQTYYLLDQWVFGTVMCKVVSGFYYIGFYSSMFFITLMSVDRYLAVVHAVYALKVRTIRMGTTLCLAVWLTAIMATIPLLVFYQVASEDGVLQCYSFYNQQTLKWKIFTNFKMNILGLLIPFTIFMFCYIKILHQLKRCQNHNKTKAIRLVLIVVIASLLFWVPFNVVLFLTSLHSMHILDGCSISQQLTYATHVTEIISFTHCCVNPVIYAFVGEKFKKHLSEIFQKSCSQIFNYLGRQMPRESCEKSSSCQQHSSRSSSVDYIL

binding result [1]: binds
B1: antibody produced by monoclonal clone 117G9F9 (murine, hybridoma) (antibody, V domains shown)
VH: EVQLVESGGGLVQPKGSLKLSCAASGFSFNTYAMNWVRQAPGKGLEWVARIRSKSNYYATYYADSVKDRFTISRDDSESMLYLQMNNLKTEDTAMYYCVRGGNSYGSSYFDYWGQGTTLTVSS
VL: DIVMTQAAPSVPVTPGESVSISCRSSKSLLHRNGNTYLYWFLQRPGQSPQLLIYRMSNLASGVPDRFSGSGSGTAFTLRISRLEAEDVGVYYCMQHLEYPFTFGAGTKLELK
notes: Mouse antibody in hybridoma supernatant; Taking 31/32 as murine rests only on the order of listing

binding result [2]: binds
B2: humanized antibody 117G9F9-VH2.1-VL1 (antibody, human IgG1, kappa, V domains shown)
VH: EVQLVESGGGLVKPGGSLRLSCAASGFSFNTYAMNWVRQAPGKGLEWVGRIRSKSNYYATYYADSVKDRFTISRDDSKNTLYLQMNSLKTEDTAVYYCVRGGNSYGSSYFDYWGQGTLVTVSS
VL: DIVMTQSPLSLPVTPGEPASISCRSSKSLLHRNGNTYLYWYLQKPGQSPQLLIYRMSNLASGVPDRFSGSGSGTDFTLKISRVEAEDVGVYYCMQHLEYPFTFGQGTKLEIKR
notes: Human IgG1/kappa

binding result [3]: binds
B3: chimeric antibody 224E9A3 (antibody, human IgG1, kappa, V domains shown)
VH: EVQLVESGGGLVQPKGSLKLSCAASGFTFNTYAMYWVCQAPGKGLEWVARIRSKSNNYATYYADSVKDRFTISRDDSQSMLYLQMNNLKTEDTAMYYCVRGGRGNYLYAMDYWGQGTSVTVSS
VL: DIVMTQAAPSVPVTPGESVSISCRSSKSLLHSNGNTYLYWFLQRPGQSPQLLIYRMSNLASGVPDRFSGSGSGSAFTLRISRVEAEDVGVYYCMQHLEYPFTFGSGTKLEIKR
notes: Murine variable regions on human IgG1/kappa

binding result [1]: binds
B4: antibody produced by monoclonal clone 224E9A3 (murine, hybridoma) (antibody, V domains shown)
VH: B3 VH
VL: B1 VL with R32S, T74S, L83V, A105S, L111I
notes: Mouse antibody in hybridoma supernatant

binding result [4]: binds
B5: chimeric antibody 117G9F9 (antibody, human IgG1, kappa, V domains shown)
VH: B1 VH
VL: B3 VL with S32R, S74T, V83L, S105A, I111L
notes: as for B3

binding result [2]: binds
B6: humanized antibody 154G7C3-VH1.1-VL2 (antibody, human IgG1, kappa, V domains shown)
VH: QVQLVQSGAEVKKPGASVKVSCKVSGYTFTDFEMHWVRQAPGKGLEWIGAFDPETGGTAYNQKFKGRVTMTEDTSTDTAYMELSSLRSEDTAVYYCTGRLRRHFDSWGQGTLVTVSS
VL: DIVMTQSPLSLPVTPGEPASISCRSSQSLVHSYGNTYLHWYLQKPGQSPQLLIYKVSNRFSGVPDRFSGSGSGTDFTLKISRVEAEDVGVYYCSQSTHVPFTFGQGTKLEIKR
notes: Human IgG1/kappa

binding result [1]: binds
B7: antibody produced by monoclonal clone 154G7C3 (murine, hybridoma) (antibody, V domains shown)
VH: QVQLQQSGAELVRPGASVTLSCKTSGYTFTDFEMHWVKQTPVHGLEWIGAFDPETGGTAYNQKFKGKAILTADKSSSTAYMELRSLTSEDSAVYYCTGRLRRHFDSWGQGTTLTVSS
VL: DVVMTQTPLSLPVSLGDQASISCRSSQSLVHSYGNTYLHWYLQKPGQSPKLLIYKVSNRFSGVPDRFSGSGSGTDFTLKISRVEAEDLGVYFCSQSTHVPFTFGSGTKLEIK
notes: Mouse antibody in hybridoma supernatant; Taking 27/28 as murine rests only on the order of listing

binding result [4]: binds
B8: chimeric antibody 154G7C3 (antibody, human IgG1, kappa, V domains shown)
VH: B7 VH
VL: B6 VL with I2V, S7T, T14S, P15L, E17D, P18Q, Q50K, V88L, Y92F, Q105S
notes: as for B3
